The values that follow come from PMC7101349 (2020).

A word on the Kd: it is the equilibrium constant for the complex coming apart. Higher therefore signals weaker binding. One may read the koff as the rate constant with which the complex falls apart. A high value points to fast dissociation.

Changes are numbered by the printed parent chain. Numbers in names are those of the source. Read-outs that look alike come from different tables or passages of the source.

Common to all, as to experiment: SPR
For test [1], the target named is T1, His10-BRIL (UniProt P0ABE7 30-123).
Test [2] concerns the target T1, His10-BRIL. This is another data set of the same source.
Test [3] concerns the target T1, His10-BRIL. The source holds these as a separate data set.
Test [4] concerns the target T1, His10-BRIL. This is another data set of the same source.

B1: sAB BAK5 (Fab, V domains shown)
VH: EVQLVESGGGLVQPGGSLRLSCAASGFNVRSFSIHWVRQAPGKGLEWVAYISSSSGSTSYADSVKGRFTISADTSKNTAYLQMNSLRAEDTAVYYCARWGYWPGEPWWKAFDYWGQGTLVTVSS
VL: DIQMTQSPSSLSASVGDRVTITCRASQSVSSAVAWYQQKPGKAPKLLIYSASSLYSGVPSRFSGSRSGTDFTLTISSLQPEDFATYYCQQYLYYSLVTFGQGTKVEIK
With B1, the affinity in the test with His10-BRIL [1], expressed as Kd, was 0.175 nM.

B2: sAB24 (Fab, V domains shown)
VH: B1 VH with V29F, R30S, F32S
VL: B1 VL
In the test with His10-BRIL [2], B2 yielded a koff of 0.0008 s⁻¹.

B3: sAB BAG2 (Fab, V domains shown)
VH: B1 VH with R30V, S31D, I34L
VL: B1 VL
With B3, the Kd with His10-BRIL [1] amounted to 0.269 nM. In addition, the koff in the test with His10-BRIL [3] is 0.00013 s⁻¹.

B4: BAG2 S36A (Fab, V domains shown)
VH: B1 VH with R30V, S31D, S33A, I34L
VL: B1 VL
In the test with His10-BRIL [4], B4 yielded a koff of 0.00037 s⁻¹.

B5: BAG2 F35A (Fab, V domains shown)
VH: B1 VH with R30V, S31D, F32A, I34L
VL: B1 VL
With B5, the koff with His10-BRIL [4] was found to be 0.00028 s⁻¹.
